The results in this text go back to patent US8846363B2, “Compositions of and methods of using sulfatases from Flavobacterium heparinum” (priority 2007, dated 2014).

Data set [1] can be described thus: Coupled 6-O-sulfatase/β-glucosidase fluorimetric plate assay (reaction conditions, steady-state kinetics). It is filed as biochemical. An excerpt:
Indirect measurement of enzyme activity was also made using a fluorimetrically-based plate assay in which the prerequisite desulfation of the appropriate glucopyranoside 1→4 methlybelliferone substrate by either the 6-O-sulfatase or N-sulfamidase was coupled to the glucosidase-mediated hydrolysis of the stereo-specific 1→4 glycosidic linkage between the pyranose ring and the adjoining fluorophore. Release of the free fluorophore (4-MU) was monitored spectroscopically as described above for the arylsulfatase assay using 4-MU sulfate. The two sulfatase assays differed in the choice of substrate in accordance to their specificity as well as the glucosidase added during the second, […] step. For the 6-O-sulfatase, the hydrolysis of the substrate 4-MU-β-D-GlcNAc,6S at the 6-OH position was coupled to β-glucosidase purified from sweet almonds (MP Biomedicals, Solon, Ohio, Catalog No. 195197). Likewise, N-sulfamidase hydrolysis of 4-MU-α-D-GlcNS at the 2-amino position was coupled to α-glucosidase (MP Biomedicals, Catalog No. 153487). […] The presumption of the first (sulfatase) activity being the rate-limiting step was established experimentally. Reaction conditions were optimized to satisfy three related criteria: 1) linear readout of fluorescent signal which is directly proportional to sulfatase activity; 2) quantitative release of 4-MU by glucosidase activity under every biochemical condition examined and; 3) negligible fluorescent quenching of the free chromophore.
For the 6-O-sulfatase/β-glucosidase assay, the standard reaction conditions included 2 μM recombinant enzyme, 50 mM sodium acetate buffer, pH 5.5, and 5 mM CaCl2 in a 20 μl reaction volume. 4-MU-GlcNAc,6S substrate concentration was varied from 0.1-2 mM. 2 μL of enzyme were added to each well of a microtiter plate (prechilled on ice), plate gently vortexed, and contents of each well spun down for 1 minute at 500×g, 4° C. […] Reactions were transferred to a black 96 well, flat-bottom FIA-plate and fluorescence measured as described above for the detection of free 4-MU. […]

Substrate in data set [2]: Cc1cc(=O)oc2cc(O[C@H]3O[C@H](CO)[C@@H](O)[C@H](O)[C@H]3NS(=O)(=O)O)ccc12
The data set can be described thus: Steady-state kinetics, coupled N-sulfamidase/α-glucosidase fluorimetric assay with 4-MU-GlcNS. The data set is classed as biochemical, Flavobacterium heparinum (Pedobacter heparinus). From the text:
Recombinant protein expression in the E. coli strain BL21(DE3) and one-step affinity purification by nickel chelation chromatography were as described for 2-O-sulfatase (Myette et al., 2003 J Biol Chem 278, 12157-12166). The prediction of NH2-terminal signal sequences and putative cleavage sites for the two respective proteins was made by the Von Heijne computational method (Nielsen et al., 1997 Protein Eng 10, 1-6.). Engineering and expression of these truncated proteins (minus signal sequences) were as described above for the full-length genes with the exception of substituting the 5′ primers which were used in the original PCR amplification step. These internal primers included 5′ TCTAGACATATGTCTTGCCAGCAGCCTAAAC 3′ (for ORF B; SEQ ID NO: 15) and 5′ TCTAGACATATGTCCTGCACTTCGCCGGAA 3′ (for ORF C; SEQ ID NO: 16), with the Nde 1 site underlined. As such, the ORF B gene sequence begins at Met 18 (FIG. 1). Likewise, the ORF C gene sequence begins at Ser 21 (FIG. 2). Removal of the 6×His tag was achieved by site-specific protease cleavage using the thrombin cleavage capture kit (Novagen, San Diego, Calif.). Proteolysis conditions were generally as described for other recombinantly expressed flavobacterial heparin degrading enzymes. […]
Indirect measurement of enzyme activity was also made using a fluorimetrically-based plate assay in which the prerequisite desulfation of the appropriate glucopyranoside 1→4 methlybelliferone substrate by either the 6-O-sulfatase or N-sulfamidase was coupled to the glucosidase-mediated hydrolysis of the stereo-specific 1→4 glycosidic linkage between the pyranose ring and the adjoining fluorophore. Release of the free fluorophore (4-MU) was monitored spectroscopically as described above for the arylsulfatase assay using 4-MU sulfate. […] Reaction conditions were optimized to satisfy three related criteria: 1) linear readout of fluorescent signal which is directly proportional to sulfatase activity; 2) quantitative release of 4-MU by glucosidase activity under every biochemical condition examined and; 3) negligible fluorescent quenching of the free chromophore.
Coupled N-sulfamidase assay was generally described for the 6-O-sulfatase, but with the following modifications: 4-MU-GlcNS as substrate, 50 mM sodium acetate at pH 6.0 (instead of 5.5) and 1 μM enzyme. […] The obvious difference in enzyme efficacies between α-glucosidase versus β-glucosidase is reflected in the substantially longer incubation times required for the α-glucosidase to quantitatively hydrolyze the glycosidic α1→4 linkage between the fluorophore and the desulfated glucosamine. […]

Setting [3] is: other: Addition: 0.5 mM Ca^+2, pH 6.0, 37.0 °C.
[4] abbreviates: other: Addition: 5 mM Ca^+2, pH 6.0, 37.0 °C.

B1: Flavobacterium heparinum 6-O-sulfatase (ORF B), recombinant, NH2-terminal truncation lacking signal sequence, SEQ ID NO: 2 (Pedobacter heparinus DSM 2366) (protein)
chain: TLMSCQQPKPAESAKRPNIVFIMTDDHTIQAISAYGSKLVKTPNLDRIANEGMLFNNCFVTNAVCGPSRATILTGKYSHLNGLTDNSKVFDSTQVIYPQLLKKAGYQTAMIGKWHLGSTPMGFDYYSILPNQGQYYQPEFIENGHLVKEKGYVTDLITDKAIGFLEKRDHDKPFLMIYQHKAPHRNWLPAPRHLGMFDDTVFPEPANLLDDFKGRGRAAKEQLMNISTDMWPAWDLKMLSTAQLDSMAKLPVSPKFKDAKGDDYQQANDPSLDKARFFEVYNRMTDAEKVQWRKVYDKRVAEFKRLNPKGADLVRWKYQQYMRDYLACVVSVDENVGRLMDYLKKIGELDNTIIVYTSDQGFYLGEHGYFDKRFMYDESFRTPLMVRYPPSVKAGSVSNAFAMNLDFAPTLLDYAGVKIPADMQGLSLRPVLDNAGKSPENWRKAVYYHYYEFPSWHMVKRHYGIRTERYKLIHFYNDIDEWELYDMQKDPHEMQNLYNDKAYEPIIKDLKVQMKKLQVQYKDTNPTEAL
notes: E. coli BL21(DE3), N-terminal 6xHis removed by thrombin
With B1, the “effect of Mg^+2 or Mn^+2 on activity” value in data set [1] (1 mM or 5 mM divalent metal) is “only negligible effects”. Further, the “activity remaining relative to the zero NaCl control” value in data set [1] (1 M NaCl) is “less than 20%”. In addition, in data set [1] (calcium added), the “activation by the presence of calcium” value is given as 2-3 fold.

B2: Flavobacterium heparinum N-sulfamidase (ORF C), recombinant, NH2-terminal truncation lacking signal sequence, SEQ ID NO: 4 (Pedobacter heparinus DSM 2366) (protein)
chain: SCTSPEKKTDRPNILMIMSDNQSWNHVGSYGDQTVRTPNMDRIAKEGVRFTNAFCSSPSCTPARAGMLTGQDIWRLEDGGNLWGVLPVKYKVYPDLLEEAGYAIGFQGKGWGPGSFEANKRPRNPAGNEFKSFGAFLKDKKEGPWCYWISSHEPHRPYVEGSGEKAGIDPNKVKVPAYLPDHISIRKDIADYYAAVETFDRELGEALDQLKASGELDNTVIVVCSDNGWQMPRGLANLYDFGTHVPLIISWPGKFKQDVVADNLVTLNDLAPTFLQLGKVPVPADMTGKSLLPIVEAGKKDEKPRDYVVLGRERHAFVRRHGLGYPGRAIRTKDYLYIKNYEPNRWPAGDPPFYGDIDPYMFNWPGETKYYLIEHKDDPKVKSFFELGMGKRPAEELFDINKDPDELHNLAALPEYQKIKQELVAKLRNYLVATKDPRETNGNIQIWDTAAYFSEIDKTPKPSKEMQKRFKLDSSYNYLK
notes: as for B1
As for B2, in data set [2] (setting [3]), the Km amounted to 45 µM and the catalytic constant (kcat) is 0.085 s⁻¹. Besides, in data set [2] (setting [4]), the Km stood at 178 µM and the kcat was found to be 0.365 s⁻¹.

As a reminder, the Km is the concentration of substrate that gives half-maximal velocity. The term kcat denotes the number of substrate molecules converted per active site and unit of time at saturation.
